Assay [1] concerns the target CD112R endogenously expressed on Jurkat/IL-2 reporter cells (Jurkat parental) (UniProt Q6DKI7). In words: flow cytometry, Jurkat parental. In general terms: In flow cytometry, cells or beads pass a laser one at a time.
Assay [2] deals with human PD-1 and human TIGIT both stably expressed on Jurkat cells (Jurkat/PD-1/TIGIT cells). Briefly: flow cytometry, Jurkat/PD-1/TIGIT cells, 20 nM.
The next assay concerns the target T1, rB7H6.Fc (human) (UniProt Q68D85).
T1 sequence (looked up): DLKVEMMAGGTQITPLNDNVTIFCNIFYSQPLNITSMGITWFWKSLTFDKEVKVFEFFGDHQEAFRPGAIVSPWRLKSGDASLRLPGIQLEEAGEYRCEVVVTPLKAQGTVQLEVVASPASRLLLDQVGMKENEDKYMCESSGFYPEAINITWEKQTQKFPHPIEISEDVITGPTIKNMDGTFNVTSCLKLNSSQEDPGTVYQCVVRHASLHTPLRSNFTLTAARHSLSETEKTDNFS
In words: flow cytometry of yeast display strain stained with 16.6 nM rB7H6.Fc.

Sequence of CD112R endogenously expressed on Jurkat/IL-2 reporter cells (Jurkat parental) (Q6DKI7 whole entry): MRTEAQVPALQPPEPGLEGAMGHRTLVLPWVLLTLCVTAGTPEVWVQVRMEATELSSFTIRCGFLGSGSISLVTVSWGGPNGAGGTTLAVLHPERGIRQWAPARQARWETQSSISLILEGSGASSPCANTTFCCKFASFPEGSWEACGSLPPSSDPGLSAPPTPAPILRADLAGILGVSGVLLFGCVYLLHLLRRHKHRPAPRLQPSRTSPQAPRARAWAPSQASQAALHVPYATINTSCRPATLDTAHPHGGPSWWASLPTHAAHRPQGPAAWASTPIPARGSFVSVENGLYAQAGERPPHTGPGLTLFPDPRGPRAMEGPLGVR

Take “non-stack variant PD-L1 IgV-Fc control (D43G/N45D/L56Q/V58A/G101G-ins (G101GG)) (Fc fusion)”: the MFI at 33.3nM in assay [1] was 100 MFI. In assay [2], this substance had an MFI at 20 nM of 41400 MFI.

Take “parental NKp30 strain (yeast-displayed wild-type NKp30 IgC-like domain) (from UniProt O14931 19-134) (receptor)”: the MFI with rB7H6.Fc (human) turned out to be 90 MFI.

Values taken from patent US20260062456A1.
